Laboratory results from patent EP3766512A1 (Universität Zürich, dated 2021).

Assays:
Assay in all cases: Protein G affinity chromatography bead
human IL-12Fc NAA = target: T1, human IL-12Fc NAA (human, UniProt P29460 23-328; P29459 23-219)
T1 construct: not shown: linker between p40 and p35 of single chain IL-12 not described; junction or linker between IL-12 and Fc not described

human IL-12Fc NAH = target: T2, human IL-12Fc NAH (human, UniProt P29460 23-328; P29459 23-219)
T2 construct: not shown: linker between p40 and p35 of single chain IL-12 not described; junction or linker between IL-12 and Fc not described

human IL-12Fc NAE = target: T3, human IL-12Fc NAE (human, UniProt P29460 23-328; P29459 23-219)
T3 construct: not shown: linker between p40 and p35 of single chain IL-12 not described; junction or linker between IL-12 and Fc not described

Measured: binding result

T1 sequence (P29460 other isoform, or with tags, fused parts or gaps): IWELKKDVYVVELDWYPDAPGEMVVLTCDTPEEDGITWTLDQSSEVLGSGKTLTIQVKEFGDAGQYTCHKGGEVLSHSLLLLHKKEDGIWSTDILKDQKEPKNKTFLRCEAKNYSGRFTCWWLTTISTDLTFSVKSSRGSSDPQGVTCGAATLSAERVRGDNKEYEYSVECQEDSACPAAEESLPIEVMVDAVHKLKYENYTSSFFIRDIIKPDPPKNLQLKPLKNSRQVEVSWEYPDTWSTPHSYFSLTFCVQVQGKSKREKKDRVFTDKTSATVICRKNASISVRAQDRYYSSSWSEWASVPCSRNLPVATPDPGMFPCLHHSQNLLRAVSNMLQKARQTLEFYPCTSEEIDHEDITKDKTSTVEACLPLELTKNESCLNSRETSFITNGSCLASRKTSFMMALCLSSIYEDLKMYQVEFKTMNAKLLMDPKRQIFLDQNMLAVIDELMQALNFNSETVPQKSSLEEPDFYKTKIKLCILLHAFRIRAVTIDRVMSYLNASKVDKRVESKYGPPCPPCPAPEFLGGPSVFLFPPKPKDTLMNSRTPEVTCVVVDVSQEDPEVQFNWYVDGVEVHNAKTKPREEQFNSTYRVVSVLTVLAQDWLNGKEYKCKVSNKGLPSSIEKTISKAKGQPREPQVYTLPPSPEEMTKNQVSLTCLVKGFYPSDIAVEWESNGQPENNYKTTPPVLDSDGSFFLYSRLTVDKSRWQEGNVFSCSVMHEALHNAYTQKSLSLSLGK
T2 sequence (P29460 other isoform, or with tags, fused parts or gaps): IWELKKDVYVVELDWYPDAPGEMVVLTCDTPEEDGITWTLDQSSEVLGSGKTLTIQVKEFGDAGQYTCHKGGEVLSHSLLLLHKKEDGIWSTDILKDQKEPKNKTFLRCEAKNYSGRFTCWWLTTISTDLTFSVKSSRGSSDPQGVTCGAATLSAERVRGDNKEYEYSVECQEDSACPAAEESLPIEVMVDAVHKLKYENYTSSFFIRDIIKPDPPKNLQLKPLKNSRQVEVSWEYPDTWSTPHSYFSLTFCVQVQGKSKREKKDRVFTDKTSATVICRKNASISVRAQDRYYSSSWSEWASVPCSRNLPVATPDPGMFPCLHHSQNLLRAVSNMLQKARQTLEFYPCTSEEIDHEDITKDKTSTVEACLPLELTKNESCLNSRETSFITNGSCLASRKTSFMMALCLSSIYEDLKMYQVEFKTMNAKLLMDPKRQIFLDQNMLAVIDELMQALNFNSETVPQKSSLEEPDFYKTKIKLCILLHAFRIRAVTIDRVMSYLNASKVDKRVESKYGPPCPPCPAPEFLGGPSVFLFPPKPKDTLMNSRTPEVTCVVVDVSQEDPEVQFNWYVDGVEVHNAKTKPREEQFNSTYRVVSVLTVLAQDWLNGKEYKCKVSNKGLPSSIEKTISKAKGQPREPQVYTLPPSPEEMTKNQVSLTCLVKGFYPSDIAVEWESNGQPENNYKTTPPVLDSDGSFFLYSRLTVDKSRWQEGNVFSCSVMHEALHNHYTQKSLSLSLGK
T3 sequence (P29460 other isoform, or with tags, fused parts or gaps): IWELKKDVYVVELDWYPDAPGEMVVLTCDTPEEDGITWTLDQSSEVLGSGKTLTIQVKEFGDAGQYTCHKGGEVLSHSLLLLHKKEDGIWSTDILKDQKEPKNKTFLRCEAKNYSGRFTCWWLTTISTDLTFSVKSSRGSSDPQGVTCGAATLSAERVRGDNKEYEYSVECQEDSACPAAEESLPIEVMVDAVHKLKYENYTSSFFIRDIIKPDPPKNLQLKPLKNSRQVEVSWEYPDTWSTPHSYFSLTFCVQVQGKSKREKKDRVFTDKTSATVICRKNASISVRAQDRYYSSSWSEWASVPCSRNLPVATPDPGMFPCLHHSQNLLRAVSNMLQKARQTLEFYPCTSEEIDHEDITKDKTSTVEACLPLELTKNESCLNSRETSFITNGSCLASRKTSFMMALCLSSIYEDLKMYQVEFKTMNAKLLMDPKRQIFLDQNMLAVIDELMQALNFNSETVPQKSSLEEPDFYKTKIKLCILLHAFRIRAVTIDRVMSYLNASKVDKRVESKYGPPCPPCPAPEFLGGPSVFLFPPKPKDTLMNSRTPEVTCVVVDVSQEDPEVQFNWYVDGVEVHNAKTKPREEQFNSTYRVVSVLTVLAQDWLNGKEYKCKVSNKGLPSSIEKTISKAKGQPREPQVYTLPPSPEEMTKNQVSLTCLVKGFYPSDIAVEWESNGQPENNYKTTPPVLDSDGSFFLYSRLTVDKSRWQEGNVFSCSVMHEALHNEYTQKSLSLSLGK

B1: Protein G (chromatography bead) (other, UniProt P19909 303-497, looked up)
chain: TYKLILNGKTLKGETTTEAVDAATAEKVFKQYANDNGVDGEWTYDDATKTFTVTEKPEVIDASELTPAVTTYKLVINGKTLKGETTTEAVDAATAEKVFKQYANDNGVDGEWTYDDATKTFTVTEKPEVIDASELTPAVTTYKLVINGKTLKGETTTKAVDAETAEKAFKQYANDNGVDGVWTYDDATKTFTVTE
no binding: all assays above
